Changes are numbered by the printed parent chain.
How the values were obtained:
[1] = biological target: cynomolgus TGF-β protein (cynomolgus); assay: ELISA, coated cynomolgus TGF-β
[2] = biological target: mouse TGF-β protein (mouse); assay: ELISA, coated mouse TGF-β
[3] = biological target: human TGF-β protein (human) (UniProt P01137); assay: ELISA, coated human TGF-β
[4] = biological target: cynomolgus PD-L1 protein (cynomolgus, UniProt G7PSE7 19-238); assay: ELISA, coated cynomolgus PD-L1
Experimental: (§1) ELISA testing was carried out to evaluate the binding of chimeric antibodies to human, mouse, rat, and cynomolgus PD-L1, respectively.
(§2) Briefly, microtiter plates were coated with human, mouse, rat and cynomolgus PD-L1 proteins at 0.5 μg/ml in PBS, 100 μl/well at 4° C. overnight, then blocked with 150 μl/well of 1% BSA. Three-fold dilutions of chimeric antibodies starting from 10 μg/ml were added to each well and incubated for 1 hour at 37° C. The plates were washed with PBS/Tween and then incubate with mouse-anti-human IgG Fab antibody conjugated with Horse Radish Peroxidase (HRP) for 30 mins at 37° C. After washing, the plates were developed with TMB substrate and analyzed by spectrophotometer at OD 450 nm.

[5] = biological target: rat TGF-β protein (rat); assay: ELISA, coated rat TGF-β
Chain of rat TGF-β protein (rat) (P17246 279-390): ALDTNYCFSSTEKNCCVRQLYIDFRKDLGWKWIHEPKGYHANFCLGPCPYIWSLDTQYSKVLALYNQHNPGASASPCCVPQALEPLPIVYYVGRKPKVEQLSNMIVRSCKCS

[6] = biological target: rat PD-L1 protein (rat, UniProt D4AE25 19-239); assay: ELISA, coated rat PD-L1
Chain of rat PD-L1 protein (D4AE25 entry or part of it limits assumed): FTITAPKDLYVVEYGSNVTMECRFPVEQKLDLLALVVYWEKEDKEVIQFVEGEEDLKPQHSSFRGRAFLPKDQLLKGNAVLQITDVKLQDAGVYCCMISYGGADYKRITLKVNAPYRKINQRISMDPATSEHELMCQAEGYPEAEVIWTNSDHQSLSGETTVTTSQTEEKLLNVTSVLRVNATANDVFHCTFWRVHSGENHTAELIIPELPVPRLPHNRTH
Experimental: as §1, §2

[7] = biological target: T1, human PD-L1-his tag protein (human, UniProt Q9NZQ7 19-238); assay: ELISA, coated human PD-L1-His
T1 construct: also called human PD-L1-His protein; recombinant PD-L1 protein; not shown: his tag
T1 sequence (Q9NZQ7 19-238 limits assumed): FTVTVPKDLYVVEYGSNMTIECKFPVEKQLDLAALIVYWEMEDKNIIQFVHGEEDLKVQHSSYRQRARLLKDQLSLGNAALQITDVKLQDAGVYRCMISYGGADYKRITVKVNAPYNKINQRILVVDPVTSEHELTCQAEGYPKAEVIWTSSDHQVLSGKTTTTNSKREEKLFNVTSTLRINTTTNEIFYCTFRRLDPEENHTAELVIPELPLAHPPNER

[8] = biological target: PD-L1 on PD-L1 target cells (Homo sapiens (Human)) (UniProt Q9NZQ7); assay: cell-based or functional assay
Chain of PD-L1 on PD-L1 target cells (Homo sapiens (Human)) (Q9NZQ7 19-290 limits assumed): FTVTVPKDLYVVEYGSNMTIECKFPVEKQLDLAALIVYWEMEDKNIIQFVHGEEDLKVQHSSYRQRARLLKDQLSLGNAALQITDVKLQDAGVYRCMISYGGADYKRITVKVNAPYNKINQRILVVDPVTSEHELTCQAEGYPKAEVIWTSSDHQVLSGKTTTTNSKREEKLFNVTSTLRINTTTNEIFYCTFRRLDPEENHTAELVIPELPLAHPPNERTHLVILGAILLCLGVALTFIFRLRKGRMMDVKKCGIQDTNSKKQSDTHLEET

[9] = biological target: human TGF-β protein (human) (UniProt P01137); assay: cell-based or functional assay
[10] = biological target: mouse PD-L1 protein (mouse, UniProt Q9EP73 19-239); assay: ELISA, coated mouse PD-L1
Chain of mouse PD-L1 protein (Q9EP73 19-239 limits assumed): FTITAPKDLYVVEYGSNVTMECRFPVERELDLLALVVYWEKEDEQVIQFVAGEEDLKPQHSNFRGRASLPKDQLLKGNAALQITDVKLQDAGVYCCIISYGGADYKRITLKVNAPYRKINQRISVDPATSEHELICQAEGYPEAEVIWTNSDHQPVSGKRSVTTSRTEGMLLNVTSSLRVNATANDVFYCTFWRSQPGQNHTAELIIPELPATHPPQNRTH
Experimental: as §1, §2

[11] = biological target: T2, human PD-L1-Fc protein (human, UniProt Q9NZQ7 19-238); assay: receptor blocking ELISA: coated human PD-L1-Fc, blocked ligand biotin-labeled human PD-1-Fc (Bio-PD1), OD 450nm; middle right panel
T2 construct: coating antigen of the ELISAs; also called rhPD-L1-Fc; not shown: Fc
T2 sequence (Q9NZQ7 19-238 limits assumed): as the sequence (Q9NZQ7 19-238 limits assumed) above
Experimental: (§3) Briefly, microtiter plates were coated with human PD-L1-Fc protein at 0.5 μg/ml in PBS, 100 μl/well at 4° C. overnight, then blocked with 150 μl/well of 1% BSA at 37° C. for 2 hours. […] The plates were washed with PBS/Tween and then incubated with Streptavidin-HRP for 10 mins at 37° C. After washing, the plates were developed with TMB substrate and analyzed by spectrophotometer at OD 450 nm.

[12] = biological target: T1, human PD-L1-his tag protein; assay: SPR (Biacore T200), mAb captured on Protein A chip, PD-L1-his injected
Experimental: The binding of the humanized antibodies to recombinant PD-L1 protein (human PD-L1-his tag) was tested by Biacore using a capture method. […] A serial dilution of human PD-L1-his tag protein was injected over captured antibody for 2 mins at a flow rate of 30 μl/min. The antigen was allowed to dissociate for 1500 s. All the experiment were carried out on a Biacore T200.

[13] = biological target: T1, human PD-L1-his tag protein; assay: SPR (Biacore), affinity ranking, PDL1-His
[14] = biological target: T3, human PD-L1 over-expressed on CHOK1 cells (human, UniProt Q9NZQ7 19-290); assay: flow cytometry (MFI) on PDL1-CHOK1 cells; upper right panel
T3 construct: whole, on cells; also called PDL1-CHOK1 cells
T3 sequence (Q9NZQ7 19-290): as the sequence (Q9NZQ7 19-290 limits assumed) above
Experimental: To evaluate the antigen binding property, the humanized antibodies were analyzed for their binding to PD-L1 overexpressed on mammalian cells by FACS. Briefly, PDL1-CHOK1 cells were firstly incubated with 3-fold serious diluted humanized antibodies starting at 15 μg/ml at 4° C. for 40 mins. After washed by PBS, the Alexa Fluor® 647 AffiniPure Goat Anti-Human IgG (H+L) antibody was added to each well and incubated at 4° C. for 30 mins. The MFI of Alexa Fluor® 647 was evaluated by FACSCanto.

[15] = biological target: T2, human PD-L1-Fc protein; assay: ELISA, antibody titrated on coated human PD-L1-Fc, OD 450nm; upper right panel
Experimental: as §2, with “To evaluate antigen binding activity, the humanized antibodies were subjected to ELISA test. Briefly,” for “Briefly,”, “with human PD-L1-Fc protein” for “with human, mouse, rat and cynomolgus PD-L1 proteins”, “with 200” for “with 150”, “of humanized” for “of chimeric”, “then incubated” for “then incubate”, “for 1 hour” for “for 30 mins”

[16] = biological target: T2, human PD-L1-Fc protein; assay: receptor blocking ELISA: coated human PD-L1-Fc, blocked ligand biotin-labeled human CD80-Fc (Bio-CD80), OD 450nm; middle right panel
Experimental: as §3

[17] = biological target: T2, human PD-L1-Fc protein; assay: receptor blocking ELISA: coated human PD-L1-Fc, blocked ligand biotin-labeled human PD-1-Fc (Bio-PD1), OD 450nm [cont'd]
Experimental: as §3

[18] = biological target: T2, human PD-L1-Fc protein; assay: receptor blocking ELISA: coated human PD-L1-Fc, blocked ligand biotin-labeled human CD80-Fc (Bio-CD80), OD 450nm [cont'd]
Experimental: as §3

[19] = biological target: T2, human PD-L1-Fc protein; assay: ELISA, antibody titrated on coated human PD-L1-Fc, OD 450nm; lower right panel
Experimental: as §2, with “To evaluate antigen binding activity, the humanized antibodies were subjected to ELISA test. Briefly,” for “Briefly,”, “with human PD-L1-Fc protein” for “with human, mouse, rat and cynomolgus PD-L1 proteins”, “with 200” for “with 150”, “of humanized” for “of chimeric”, “then incubated” for “then incubate”, “for 1 hour” for “for 30 mins”

Chain of human TGF-β protein (human) (P01137 279-390 limits assumed): as the sequence (P17246 279-390) above, with S75A counted along it
Chain of mouse TGF-β protein (mouse) (P04202 279-390): as the sequence (P17246 279-390) above
Chain of cynomolgus PD-L1 protein (G7PSE7 entry or part of it): as the sequence (Q9NZQ7 19-238 limits assumed) above, with A33T, A34S, S62N, R68Q, Q82R, F173L, T185A, T192I, H215L counted along it
Chain of cynomolgus TGF-β protein (cynomolgus) (P09533 279-390): as the sequence (P17246 279-390) above, with S75A counted along it

Molecule: M7824 (bintrafusp alfa)
- EC50 [1]: 0.0397 µg/mL
- EC50 [2]: 0.0462 µg/mL
- EC50 [3]: 0.0434 µg/mL
- EC50 [4]: 0.0256 µg/mL
- EC50 [5]: 0.124 µg/mL
- EC50 [6]: 0.0143 µg/mL
- EC50 [7]: 0.0237 µg/mL
- EC50, NFAT-RE-mediated luminescence, PD1 effector cells co-cultured with PD-L1 target cells [8]: 0.85 nM
- IC50, TGF-β SBE luciferase reporter assay in 293 cells [9]: 0.0669 nM
- EC50 [10]: 0.0106 µg/mL

B1: Hu67F3G7-7 (antibody, V domains shown)
VH: EVQLVQSGAEVKKPGASVKVSCKASGYTFTDFWVSWVRQAPGQGLEWMGEIYPNSGVSRYNEKFKGRVTMTVDKSISTAYMELSRLRSDDTAVYYCTKYFGYTYWFGYWGQGTLVTVSS
VL: DTVLTQSPSSLSASVGDRVTITCRASKSVSTYMHWYQQKPGKAPKLLIYSASHLESGVPSRFSGSGSGTDFTLTISSLQPEDFATYYCQQSNELPVTFGGGTKVEIK
notes: humanized
- IC50 [11]: 0.14 µg/mL
- Kd [12]: 0.0328 nM
- koff [12]: 7.25e-05 s⁻¹
- kon [12]: 2.21e+06 M⁻¹ s⁻¹
- Kd [13]: 0.0353 nM
- koff [13]: 9.49e-05 s⁻¹
- kon [13]: 2.69e+06 M⁻¹ s⁻¹
- EC50 [14]: 0.11 nM
- EC50 [15]: 0.0124 µg/mL
- IC50 [16]: 0.382 µg/mL

B2: Hu67F3G7-22 (antibody, V domains shown)
VH: B1 VH
VL: B1 VL with T2I, V3Q, L4M, A43Q
notes: humanized
- Kd [12]: 0.0326 nM
- koff [12]: 5.79e-05 s⁻¹
- kon [12]: 1.78e+06 M⁻¹ s⁻¹
- IC50 [17]: 0.108 µg/mL
- IC50 [18]: 0.126 µg/mL
- Kd [13]: 0.0435 nM
- koff [13]: 7.26e-05 s⁻¹
- kon [13]: 1.67e+06 M⁻¹ s⁻¹
- EC50 [19]: 0.0078 µg/mL
- EC50 [14]: 0.118 nM

Reference: patent US20230287125A1 (LEPU BIOPHARMA, published 2023)
